T1: TNF-beta (human, UniProt P01374 35-205)
T1 construct: also called TNFβ; Tumour Necrosis Factor-beta
T1 sequence (looked up): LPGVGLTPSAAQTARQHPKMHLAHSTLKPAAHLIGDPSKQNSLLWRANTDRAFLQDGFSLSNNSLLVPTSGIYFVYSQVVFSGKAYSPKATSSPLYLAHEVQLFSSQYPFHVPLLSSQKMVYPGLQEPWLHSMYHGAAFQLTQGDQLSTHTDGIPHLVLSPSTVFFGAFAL

T2: Fas ligand (human, UniProt P48023 134-281, limits assumed)
T2 sequence (looked up): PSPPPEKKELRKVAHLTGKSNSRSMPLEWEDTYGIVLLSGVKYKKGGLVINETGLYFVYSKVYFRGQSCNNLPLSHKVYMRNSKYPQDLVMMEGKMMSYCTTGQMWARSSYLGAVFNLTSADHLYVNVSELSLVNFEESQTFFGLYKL

B1: I016F02 (scFv)
scFv: GVQLVESGAEVKKPGASVKVSCRTSGYTFTSNSFSWVRQAPGQGLEWMGGIIPIFGTANYAQKLQGRVTITADELTRTVYMDLSSLRSEDTAVYYCATGMGDHYGMDVWGRGTLVTVSSGGGGSGGGGSGGGGSQSVLTQPASVSGSPGQSITISCTGTSSDVGGYNYVSWYQQHPGKAPKLMIYEGSKRPSGVSNRFSGSKSGNTASLTISGLQAEDEADYYCSSYTTRSTRVFGGGTKLTVLG
B2: I012A06 (scFv)
scFv: QVQLQESGPGVVKPSQTLSLTCTVSGVSISSDSYYWSWIRQPAGKGPEWIGRIYPTGSTNYNPSLKSRVTISVDTSKNQFSLQLTSVTAADTAVYYCARGRWDYDLLTGEHLGYYFDYWGRGTLVTVSSGGGGSGGGGSGGGGSALSSELTQDPAVSVALGQTVRITCQGDTLRNYYASWYQQKPGQAPVLVIHSRNNRPSGIPDRFSGSSSGTTASLTITGSQAEDEADYYCNSRDSSGNVIFGGGTKLTVLG
B3: I031C07 (scFv)
scFv: EVQLVQSGAEVKKPGSSVKVSCRASGGSFIDGSINWLRQAPGQGLEWVGGTIPLANRANYAQKFRDRVTITADELTAIVFLELTSLRSDDTALYYCARSSPPRWYDALTGDSSYHSAMDVWGQGTMVTVSSGGGGSGGGGSGGGGSAQSALTQPPSASGSPGQSVTISCSGTSSDIGDSNSVSWYQQHPGKAPKLLIYEVTKRPSGVPDRFAGSRSDNTASLTVSGLQTEDEADYYCSSSAARNHLVFGGGTKVTVLG
B4: I031G10 (scFv)
scFv: QVQLVQSGAEVKKPGSSVKVSCRVSGGSFTDDSINWLRQAPGQGLEWVGGTIPLANRANYAQKFRDRVTITADELTATVFLELTSLRSDDTALYYCARSSPPKWYDALTGDSSYHSAMDVWGRGTLVTVSSGGGGSGGGGSGGGGSAQSVVTQPPSVSAAPGQKVTISCSGSTSNIGRNYVSWYQQLPGTATKLLIYDNNKRPSGIPDRFSGSKSGTSATLGITGLQTGDEADYYCGTWDSSLRIYVFGTGTKVTVLG
B5: I028A06 (scFv)
scFv: QVQLVESGGGLIQPGGSLRLSCAASGFSFGSYAMSWIRQAPGKGLEWVSTSTGRGGSTYYADSVKGRFTISRDNAKNSLYLQMNSLRAEDAAVYYCARGGDYDILTGLYYYGMDVWGKGTMVTVSSGGGGSGGGGSGGGGSSYVLTQPPSVSGTPGQRVTISCSGGRSNIGSNTVKWYQQLPGTAPKLLIYGNDQRPSGVPDRFSGSKSGTSASLAITGVQAEDEADYYCQSYDSSLRGSRVFGTGTKVTVLG
B6: I026E03 (scFv)
scFv: EVQLVQSGGEVKRPGASVKVSCKASGYTFSRYGISWVRQAPGQGLEWMGWISAYNGKTSFAEKFQGRVTLTTDTSTTTVDMELRNLRSDDTAVYYCARTDYDILTGYPMGYFDPWGKGTLVTVSSGGGGSGGGGSGGGGSALSSELTQDPAVSVALGQTVKITCQGDSLRSFYAAWYQQKPGQAPILVISGKNNRPSGIPDRFSGSSSGNTASLTITGAQAEDEADYYCNSRDTSGNHYVFGAGTKLTVLG
B7: I021B05 (scFv)
scFv: QVQQSGADVKKPGGSLRLSCAASGFTFSSYSMNWVRQAPGKGLEWVSSISSSSSYIYYADSVKGRFTISRDNAKNSLYLQMNSLRAEDTAVYYCAREGGNYDILTGYYIGNGAFDIWGRGTMVTVSSGGGGSGGGGSGGGGSQSVLTQPASVSGSPGQSITISCTGTSSDVGGYNYVSWYQQHPGKAPKLMIYEGSKRPSGVSNRFSGSKSGNTASLTISGLQAEDEADYYCSSYTTRSTRVFGGGTKLTVLG
B8: I061H01 (scFv)
scFv: QVQLVQSGGGLVKPGGSLRLSCAASGFTFSNAWMSWVRQAPGKGLQWVGRIKSKTDGGTTDYAAPVKGRFTISRDDSKNTLYLQMNSLKTEDTAVYYCTTFNPTYDILTGYYIGGYFQHWGQGTMVTVSSGGGGSGGGGSGGGGSQSVLTQPASVSGSPGQSITISCTGTSSDVGGYNYVSWYQQHPGKAPKLMIYEGSKRPSGVSNRFSGSKSGNTASLTISGLQAEDEADYYCSSYTTRSTRVFGGGTQLTVLG
notes: also called 1061H01
B9: I006D08 (scFv)
scFv: QVQLQQSGAEVKKPGSSVRVSCKASGGTFNNNAINWVRQAPGQGLEWMGGIIPMFGTAKYSQNFQGRVAITADESTSTASMELSSLRSEDTAVYYCARSRDLLLFPHYGMDVWGRGTMVTVSSGGGGSGGGGSGGGGSAFSSELTQDPAVSVALGQTVRVTCQGDSLRSYYASWYQQKPGQAPVLVIYGKNNRPSGIPDRFSGSSSGNTASLTITGAQAEDEADYYCNSRDSSGNHWVFGGGTELTVLG
B10: I031C03 (scFv)
scFv: QMQLVQSGAEVRKPGSSVKVSCKASGGSFSSHVFSWVRQAPGQGLEWVGGITPKFATPNYAQKFQHRVTITADELTRTVFMDLSGLRSEDTAVYYCARGYDSSAFRAFDIWGQGTLVTVSSGGGGSGGGGSGGGGSAQSVLTQPPSVSAAPGQKVTISCSGSSSNIGNNYVSWYQQFPGTAPKLLIYDNNNRPSGVPDRFSGSKSGTSATLGITGLQTGDEADYYCGTWDRSLSVVVFGGGTKVTVLG
B11: I031G08 (scFv)
scFv: QVQLVQSGAEVKKPGSSVKVSCRASGGSFIDDSINWLRQAPGQGLEWVGGTIPLANRANYAQKFRDRATITADELTATVFLELTSLRSDDTALYYCARSSPPKWYDALTGHSSYHSAMDVWGRGTLVTVSSGGGGSGGGGSGGGGSAQSVLTQPPSASGTPGQRVTISCSGTNSNIGGNTVNWYQQLPGTAPRLLIYSNNQRPSGVPDRFSGSKSGTSASLAISGLQSEDEADYYCAARDDRLNAHVVFGGGTKVTVLG
B12: I008A09 (scFv)
scFv: GVQLVQSGGGVVQPGGSLRLSCAASGFTFSSYGMHWVRQAPGKGLEWVAVISYDGSNKYYADSVKGRFTISRDNSKNTLYLQMNSLRAEDTAVYYCARDREAYYDILTGYYLYYYYMDVWGRGTTVTVSSGGGGSGGGGSGGGGSQSVLTQPASVSGSPGQSITISCTGTSSDVGGYNYVSWYQQHPGKAPKLMIYEGSKRPSGVSNRFSGSKSGNTASLTISGLQAEDEADYYCSSYTTGSTRVFGGGTKLTVLG
B13: I031F02 (scFv)
scFv: QVQLVQSGAEVRKPGSSVKVSCKASGGSFSSHVFSWVRQAPGQGLEWVGGITPKFATPNYAQKFQHRVTITADELTRTVFMDLSGLRSEDTAVYYCARGYDSSAFRAFDIWGQGTMVTVSSGGGGSGGGGSGGGGSAQSVLTQPPSVSGAPGQRVTISCTGSSSNIGAGYDVQWYQQLPGTAPKLLIHGNNNRPSGVPDRFSGSKSGTSASLAITGLQDEDEADYYCQSYDSSLSFSGYVFGTGTKVTVLG

target: T3, membrane-bound B Lymphocyte Stimulator on U937 plasma membrane preparations (human, UniProt Q9Y275 1-285); test: phage ELISA
T3 construct: Natural protein in plasma membrane fractions of the human cell line U937 coated on ELISA plates; also called U937 plasma membranes; U937 membranes

binding result | Binder
binds | B1
binds | B2
binds | B3
binds | B4
binds | B5
binds | B6
binds | B7
binds | B8
binds | B9
binds | B10
binds | B11
binds | B12
binds | B13

target: T4, TNF-alpha (human, UniProt P01375 77-233); test: phage ELISA
T4 construct: also called TNFα; TNF-α

binding result | Binder
no binding | B1
no binding | B2
no binding | B3
no binding | B4
no binding | B5
no binding | B6
no binding | B7
no binding | B8
no binding | B9
no binding | B10
no binding | B11
no binding | B12
no binding | B13

target: T1, TNF-beta; test: phage ELISA

binding result | Binder
no binding | B1
no binding | B2
no binding | B3
no binding | B4
no binding | B5
no binding | B6
no binding | B7
no binding | B8
no binding | B9
no binding | B10
no binding | B11
no binding | B12
no binding | B13

target: T2, Fas ligand; test: phage ELISA

binding result | Binder
no binding | B1
no binding | B2
no binding | B3
no binding | B4
no binding | B5
no binding | B6
no binding | B7
no binding | B8
no binding | B9
no binding | B10
no binding | B11
no binding | B12
no binding | B13

target: T5, TRAIL (human, UniProt P50591 114-281); test: phage ELISA
T5 construct: also called TNF-related apoptosis inducing ligand

binding result | Binder
no binding | B1
no binding | B2
no binding | B3
no binding | B4
no binding | B5
no binding | B6
no binding | B7
no binding | B8
no binding | B9
no binding | B10
no binding | B11
no binding | B12
no binding | B13

target: T6, B Lymphocyte Stimulator, soluble form (human) (human, UniProt Q9Y275 134-285, biotinylated with NHS-biotin where used as biotinylated B Lymphocyte Stimulator); test: phage competition ELISA
T6 construct: Coated on plastic, captured on streptavidin plates, amine-coupled to a CM5 chip or free in solution, depending on the assay; also called BLyS; immobilized B Lymphocyte Stimulator

binding result | Binder
binds | B1
binds | B2
binds | B3
binds | B4
binds | B5
binds | B6
binds | B7
binds | B8
binds | B9
binds | B10
binds | B11
binds | B12
binds | B13
